Data as given in PMC12593362, “Mapping the Role of Monomer Conformation in the Amyloid Formation of α‑Synuclein Splice Variants” (Journal of the American Chemical Society, 2025).

Biological target: the molecule itself
Assay: thioflavin T fluorescence + pelleting assay + negative stain TEM; de novo self-assembly into amyloid fibrils; 100 μM monomer in 20 mM sodium phosphate pH 7.4 with 0 mM NaCl, 37 °C, shaking with a Teflon polyball

B1: α-synuclein splice variant lacking the residues encoded by exons 3 and 5 (αSynΔ3Δ5) (natural protein)
chain: not shown
notes: made from the αSynΔ3 construct with the exon 5 deletion primers; natural splice isoform; No tag is named; Used as soluble monomer and as sonicated fibril seeds; source: E. coli BL21 DE3, purified (boiling, ammonium sulfate precipitation, anion exchange, SEC)
- binding result: binds
